Test results as given in patent publication US9999664B2, “HIV-1 gp120 mini V3 loop and uses thereof” (The Scripps Research Institute, priority 2011, dated 2018).

Legend:
[1] = target: HIV-1 JR-FL envelope (Env) on pseudovirus (HIV-1 JR-FL)
[2] = target: HIV-1JR-FL Env trimers on the surface of transfected 293T cells (Human immunodeficiency virus 1, strain JR-FL); experiment: JR-FL cell surface binding, flow cytometry on transfected 293T cells
[3] = target: gp120 BaL (HIV-1 BaL); experiment: gp120 ELISA
[4] = target: gp120 JR-CSF (HIV-1 JR-CSF) (UniProt P20871); experiment: gp120 ELISA
[5] = target: gp120 JR-FL (HIV-1 JR-FL); experiment: gp120 ELISA
[6] = target: HIV-1 BaL envelope (Env) on pseudovirus (HIV-1 BaL); experiment: cell-based or functional assay
[7] = target: HIV-1 JR-CSF envelope (Env) on pseudovirus (HIV-1 JR-CSF) (UniProt P20871); experiment: cell-based or functional assay
[8] = target: HIV-1 JR-FL envelope (Env) on pseudovirus (HIV-1 JR-FL); experiment: cell-based or functional assay
[9] = target: gp120 (ELISA antigen of FIG. 3, strain not stated) (HIV-1, strain not stated); experiment: ELISA on coated gp120, absorbance at 405 nm

Row | Substance | IC50 (JR-FL neutralization) [1] | EC50 [2] | fold change in gp120 binding (EC50 variant/EC50 WT) [3] | fold change in gp120 binding (EC50 variant/EC50 WT) [4] | fold change in gp120 binding (EC50 variant/EC50 WT) [5] | Fold change in neutralization (IC50 variant/IC50 WT antibody) [6] | Fold change in neutralization (IC50 variant/IC50 WT antibody) [7] | Fold change in neutralization (IC50 variant/IC50 WT antibody) [8] | EC50 (read off the curve) [9]
1 | 2G12 IgG (antibody) | 8.5 nM | 11.6 nM |  |  |  |  |  |  | 
2 | PGT 127 Fab | 14.6 nM | 12.7 nM |  |  |  |  |  |  | 
3 | PGT 128 Fab | 6.3 nM | 10.3 nM |  |  |  |  |  |  | 
4 | PGT 128 IgG variant HC D72A (antibody) |  |  | 0.7 fold | 0.9 fold | 0.7 fold | 1.2 fold | 1 fold |  | 
5 | PGT 128 IgG variant HC G55D (antibody) |  |  | 2.5 fold | 0.7 fold | 1.4 fold | 2.3 fold | 2 fold |  | 
6 | PGT 128 IgG variant HC H52aA (antibody) |  |  | 2.4 fold | 64 fold | 2.8 fold | 9.8 fold | 2.4 fold | 146 fold | 0.09 µg/mL
7 | PGT 128 IgG variant HC H59A (antibody) |  |  | 1 fold | 1 fold | 0.8 fold | 11.5 fold | 6.8 fold | 12.4 fold | 
8 | PGT 128 IgG variant HC K100gA (antibody) |  |  | 28 fold |  | 22.3 fold | 1700 fold | 142 fold | > 3000 fold | 1 µg/mL
9 | PGT 128 IgG variant HC L51A (antibody) |  |  | 1.5 fold | 0.7 fold | 0.7 fold | 1.2 fold | 1.2 fold |  | 
10 | PGT 128 IgG variant HC N33A (antibody) |  |  | 0.8 fold | 0.5 fold | 0.6 fold | 0.4 fold | 0.7 fold |  | 
11 | PGT 128 IgG variant HC R54A (antibody) |  |  | 0.6 fold | 0.9 fold | 0.5 fold | 2.3 fold | 0.6 fold |  | 
12 | PGT 128 IgG variant HC R100aA (antibody) |  |  | 1.5 fold | 0.7 fold | 1 fold | 2.1 fold | 1.3 fold |  | 
13 | PGT 128 IgG variant HC W52fA (antibody) |  |  | 1.5 fold | 1.5 fold | 1 fold | 29.5 fold | 3.9 fold | 34.5 fold | 
14 | PGT 128 IgG variant HC W100eA (antibody) |  |  | 15 fold | 17.4 fold | 9.4 fold | 658 fold | 29.7 fold | > 3000 fold | 0.5 µg/mL
15 | PGT 128 IgG variant HC Y52eA (antibody) |  |  | 0.9 fold | 1.2 fold | 0.7 fold | 12.9 fold | 2.1 fold | 21.1 fold | 
